Test results as given in PMC7059798, “Phosphoglucomutase Is Not the Target for Galactose Toxicity in Plants” (Frontiers in Plant Science, 2020).

Experiments:
purified protein [1] = substrate: O=P(O)(O)O[C@H]1O[C@H](CO)[C@@H](O)[C@H](O)[C@H]1O; assay: purified protein; type: biochemical, Arabidopsis thaliana; conditions: 50 mM TEAB pH 7.0, 2 mM MgCl2, 10 µM Glc-1,6bP, 25°C
purified protein [2] = substrate: O=P(O)(O)OC[C@H]1O[C@H](OP(=O)(O)O)[C@H](O)[C@@H](O)[C@@H]1O; assay: purified protein; type: biochemical, Arabidopsis thaliana; conditions: 50 mM TEAB pH 7.0, 2 mM MgCl2, Glc-1P as substrate, 25°C, catalytic intermediate, Figure 3 legend prints 4.3, varied: cofactor

B1: PGM3 (Arabidopsis thaliana) (protein)
chain: MVFKVSTVSTSPIDGQKPGTSGLRKKVKVFKQPNYLENFVQATFNALTAEKVKGATLVVSGDGRYYSKDAVQIIIKMAAANGVRRVWVGKNTLLSTPAVSAVIRERSGADGSKATGAFILTASHNPGGPTEDFGIKYNMENGGPAPESITDKIYENTKTIKEYPIAQDLPNVDISAVGVTSFEGPEGKFDVEVFDPADDYVKLMKSIFDFEAIRKLLSSPKFTFCYDALHGVAGAYAHRIFVEELGAQESALLNCTPKEDFGGGHPDPNLTYAKELVARMGLGKSDTGGEPPEFGAAADGDADRNMILGKRFFVTPSDSVAIIAANAIGAIPYFSSGLKGVARSMPTSAALDVVAKSLNLKFFEVPTGWKFFGNLMDAGMCSVCGEESFGTGSDHIREKDGIWAVLAWMSILAHKNKGNIDGNAKLVSVEDIVRQHWATYGRHYYTRYDYENVDAGKAKELMEHLVKLQSSIPEVNKIVKGIRSDVASVASADEFEYKDPVDGSISKHQGIRYLFEDGSRLVFRLSGTGSEGATIRLYIEQYEKDASKTGRESQEALSPLVDLALKLSKMEEFTGRSAPTVIT
notes: forward primer encodes (tag)HHHHHG-MVFKVSTVS
Purified protein [1]
  Km: 90 µM
Purified protein [2]
  Km: 4.38 µM
